Reverse-splicing fitness data for 84 variants are collected here from the RNAGym collection of RNA variant scans (doi:10.1093/molbev/msab373).

The labels stand for the following.
B1: Azoarcus group I ribozyme (parent)
chain: GUGCCUUGCGCCGGGAAACCACGCAAGGGAUGGUGUCAAAUUCGGCGAAACCUAAGCGCCCGCCCGGGCGUAUGGCAACGCCGAGCCAAGCUUCGGCGCCUGCGCCGAUGAAGGUGUAGAGACUAGACGGCACCCACCUAAGGCAAACGCUAUGGUGAAGGCAUAGUCCAGGGAGUGGCGAAAGUCACACAAACCGG

The variants in the data set derive from B1. The data set can be described thus: reverse-splicing fitness (ratio to wild type); higher = more active; in vitro selection; Mg2+ level not given. The method in brief:
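An in vitro group I ribozyme library with randomized positions was T7-transcribed and gel-purified. In triplicate, 10 pmol RNA in EPPS pH 7.5 was reacted with 50 pmoles of a 30-nt RNA substrate for 1 h at 37 °C across several added MgCl2 levels (1–48 mM), then stopped with EDTA. Products were reverse transcribed from a substrate-complementary primer, PCR-amplified and sequenced (HiSeq 4000). Fitness is a variant's read proportion after selection over that before, normalised to wild type.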
As to C82G A111C A120U C150G C169G U176C, the reverse-splicing fitness came out at 0.00379.

On to C82G A111C A120U C150G C169G U176A, for which the reverse-splicing fitness was determined as 0.0049.

Turning to C82G A111C A120U C150G C169G U176G, the reverse-splicing fitness was found to be 0.00302.

Regarding C82G A111C A120U C150U C169U U176C, the reverse-splicing fitness was determined as 0.00485.

Regarding C82G A111C A120U C150U C169U U176A, the reverse-splicing fitness is 0.00688.

Take C82G A111C A120U C150U C169U U176G: the reverse-splicing fitness was found to be 0.0024.

Turning to C82G A111C A120U A145U C150G U176A, the reverse-splicing fitness was found to be 0.00411.

Take C82G A111C A120U A145U C150G U176G: the reverse-splicing fitness was determined as 0.00265.

Consider C82G A111C A120U A145U C150G U176C, for which the reverse-splicing fitness was 0.0062.

C82G A111C A120U A145G U176G: the reverse-splicing fitness is 0.004.

As to C82G A111C A120U A145G U176A, the reverse-splicing fitness is 0.0112.

With C82G A111C A120U A145G U176C, the reverse-splicing fitness was 0.0203.

As to C82G A111C A120U A145G C169U U176A, the reverse-splicing fitness was determined as 0.00525.

C82G A111C A120U A145G C169U U176C: the reverse-splicing fitness worked out at 0.00468.

On to C82G A111C A120U A145G C169U U176G, for which the reverse-splicing fitness was 0.0022.

For the variant C82G A111C A120U A145U C150A C169G, the reverse-splicing fitness stood at 0.00295.

Regarding C82G A111C A120U A145U C150A C169A, the reverse-splicing fitness came out at 0.00247.

C82G A111C A120U A145U C150A C169U: the reverse-splicing fitness was 0.00311.

Regarding C82G A111C A120U A145C C169G U176C, the reverse-splicing fitness worked out at 0.00339.

In the case of C82G A111C A120U A145C C169G U176A, the reverse-splicing fitness is 0.00322.

Consider C82G A111C A120U A145C C169G U176G, for which the reverse-splicing fitness was 0.00197.

As for C82G A111C A145C C150U C169G U176C, the reverse-splicing fitness was 0.0189.

As for C82G A111C A145C C150U C169G U176A, the reverse-splicing fitness amounted to 0.0245.

As for C82G A111C A145C C150U C169G U176G, the reverse-splicing fitness was determined as 0.00873.

Regarding C82G A111C A120U C169G U176C, the reverse-splicing fitness worked out at 0.00367.

For C82G A111C A120U C169G U176G, the reverse-splicing fitness was determined as 0.00213.

Turning to C82G A111C A120U C169G U176A, the reverse-splicing fitness came out at 0.00344.

As to C82G A111C A145G, the reverse-splicing fitness was determined as 0.289.

As to C82G A111C A145C, the reverse-splicing fitness worked out at 0.29.

In the case of C82G A111C A145G C150A C169U, the reverse-splicing fitness stood at 0.00998.

As for C82G A111C A145G C150A C169A, the reverse-splicing fitness turned out to be 0.00903.

For C82G A111C A145G C150A C169G, the reverse-splicing fitness is 0.00789.

Regarding C82G A111C A145C C150G C169G U176A, the reverse-splicing fitness amounted to 0.00893.

Take C82G A111C A145C C150G C169G U176G: the reverse-splicing fitness stood at 0.00664.

In the case of C82G A111C A145C C150G C169G U176C, the reverse-splicing fitness worked out at 0.0101.

For C82G A111C A120U C169U U176A, the reverse-splicing fitness came to 0.00632.

Regarding C82G A111C A120U C169U U176G, the reverse-splicing fitness stood at 0.00247.

C82G A111C A120U C169U U176C: the reverse-splicing fitness stood at 0.00475.

On to C82G A111C A120U A145G C169G, for which the reverse-splicing fitness amounted to 0.00473.

Take C82G A111C A120U A145G C169U: the reverse-splicing fitness was 0.00527.

Turning to C82G A111C A120U A145G C169A, the reverse-splicing fitness turned out to be 0.00335.

As to C82G A111C A120U A145G C150A U176A, the reverse-splicing fitness stood at 0.00773.

Take C82G A111C A120U A145G C150A U176G: the reverse-splicing fitness was 0.00353.

For C82G A111C A120U A145G C150A U176C, the reverse-splicing fitness was 0.0086.

On to C82G A111C A145C C150A C169G U176A, for which the reverse-splicing fitness was 0.0237.

Regarding C82G A111C A145C C150A C169G U176G, the reverse-splicing fitness worked out at 0.00878.

Consider C82G A111C A145C C150A C169G U176C, for which the reverse-splicing fitness was 0.0224.

Regarding C82G A111C A120U A145C C150A U176A, the reverse-splicing fitness came out at 0.00374.

C82G A111C A120U A145C C150A U176G: the reverse-splicing fitness was 0.00247.

As for C82G A111C A120U A145C C150A U176C, the reverse-splicing fitness turned out to be 0.00361.

In the case of C82G A111C A145C C150G U176A, the reverse-splicing fitness is 0.0132.

Take C82G A111C A145C C150G U176C: the reverse-splicing fitness was found to be 0.0203.

For C82G A111C A145C C150G U176G, the reverse-splicing fitness is 0.00447.

On to C82G A111C A120U A145U C150U, for which the reverse-splicing fitness is 0.0307.

With C82G A111C A120U A145U C150G, the reverse-splicing fitness stood at 0.00826.

Turning to C82G A111C A120U A145U C150A, the reverse-splicing fitness is 0.00799.

For the variant C82G A111C A120U A145C C150G, the reverse-splicing fitness is 0.008.

For the variant C82G A111C A120U A145C C150U, the reverse-splicing fitness came out at 0.0115.

For C82G A111C A145C C169A U176G, the reverse-splicing fitness was determined as 0.00713.

Regarding C82G A111C A145C C169A U176C, the reverse-splicing fitness was determined as 0.015.

Consider C82G A111C A145C C169A U176A, for which the reverse-splicing fitness is 0.0184.

In the case of C82G A111C A145C C150G C169U U176A, the reverse-splicing fitness turned out to be 0.00717.

As to C82G A111C A145C C150G C169U U176C, the reverse-splicing fitness came to 0.0102.

Take C82G A111C A145C C150G C169U U176G: the reverse-splicing fitness turned out to be 0.0071.

In the case of C82G A111C A120U A145G C169A U176G, the reverse-splicing fitness worked out at 0.00218.

Take C82G A111C A120U A145G C169A U176C: the reverse-splicing fitness was found to be 0.00311.

C82G A111C A120U A145G C169A U176A: the reverse-splicing fitness came out at 0.00424.

Take C82G A111C A120U C150A C169G U176A: the reverse-splicing fitness is 0.00466.

In the case of C82G A111C A120U C150A C169G U176C, the reverse-splicing fitness came out at 0.00487.

Take C82G A111C A120U C150A C169G U176G: the reverse-splicing fitness stood at 0.0024.

For the variant C82G A111C A145C C150A C169A U176C, the reverse-splicing fitness was 0.00947.

On to C82G A111C A145C C150A C169A U176A, for which the reverse-splicing fitness was found to be 0.0136.

C82G A111C A145C C150A C169A U176G: the reverse-splicing fitness stood at 0.00782.

In the case of C82G A111C A145G C150G C169U U176C, the reverse-splicing fitness came to 0.0116.

In the case of C82G A111C A145G C150G C169U U176A, the reverse-splicing fitness was 0.0103.

As for C82G A111C A120U C150A C169U U176C, the reverse-splicing fitness came to 0.00469.

As for C82G A111C A120U C150A C169U U176A, the reverse-splicing fitness stood at 0.00691.

As for C82G A111C A120U C150A C169U U176G, the reverse-splicing fitness stood at 0.00298.

Take C82G A111C A145C C150A U176G: the reverse-splicing fitness was 0.00879.

With C82G A111C A145C C150A U176A, the reverse-splicing fitness was 0.0144.

As for C82G A111C A145C C150A U176C, the reverse-splicing fitness amounted to 0.0188.

C82G A111C A120U C150U C169G: the reverse-splicing fitness stood at 0.00542.

Turning to C82G A111C A120U C150U C169A, the reverse-splicing fitness was determined as 0.00635.

On to C82G A111C A120U C150U C169U, for which the reverse-splicing fitness amounted to 0.00568.
